Data taken from patent publication US20230340111A1 (published 2023).
Where two headings read alike, the source gives them in different places.

Experiments:
[1] = target: T1, human FOLR1 recombinant protein (extracellular domain of human folate receptor alpha) (human, UniProt P15328 25-233); assay: SPR (Biacore T200), human FOLR1 immobilized on CM5, His6-tagged VHH as analyte, 1:1 fit
T1 construct: Bought recombinant protein (Sino Biological); also called hFOLR1; FR-alpha
Protocol: The kinetic parameters of antigen binding by purified VHHs were determined via surface plasmon resonance with a Biacore T200 instrument (GE Healthcare). The human FOLR1 recombinant protein (Sino Biological) was immobilized in 10 mM sodium acetate, pH 5.5 on a CM5 chip (GE Healthcare) via amine coupling chemistry to 500 RU. His₆-tagged VHHs were analyzed in a twofold serial dilution in HBS (125 nM-0.488 nM for VHHs A4 and A5; 10 nM-0.039 nM for VHHs A1, A2 and A3) with an analyte flow rate of 30 µl/min. The association phase took 180 s (A4-A5) or 450 s (A1-A3) and the dissociation phase 600 s (A4-A5) or 900 s (A1-A3). Regeneration was done by a single injection of 50 mM glycine-HCl, pH 2.5, 2 M MgCl₂ for 30 s at 30 µl/min, followed by 120 s stabilization. Binding curves were fitted using a ‘1:1 (antigen:analyte)’ binding model in Biacore T200 evaluation software.

[2] = target: T1, human FOLR1 recombinant protein …; assay: SPR dual injection on immobilized human FOLR1, 250 nM; competitor (1st VHH, saturating) A1; by the legend the value is of the 2nd VHH
Protocol: (§1) Competitive binding characteristics of His₆-tagged VHHs were determined via surface plasmon resonance with a Biacore T200 instrument (GE Healthcare). Immobilization of human FOLR1 recombinant protein (Sino Biological) and regeneration were performed as described below for kinetic measurements.
(§2) Table 8: Side-by-side comparison of His₆-tagged VHHs A1, A2, A3, A4, A5 for binding to human FOLR1 to identify competitive binding characteristics. Binding was measured in surface plasmon resonance with immobilized human FOLR1 recombinant protein as the ligand. After saturation of the ligand with VHH 1 an equimolar mixture of VHH 1 and VHH 2 was injected. Percentages express the loss in response level of VHH 2, relative to the response when VHH 2 was injected alone.

[3] = target: T1, human FOLR1 recombinant protein …; assay: SPR dual injection on immobilized human FOLR1, 250 nM; competitor (1st VHH, saturating) A2; by the legend the value is of the 2nd VHH
Protocol: as §1, §2

[4] = target: T1, human FOLR1 recombinant protein …; assay: SPR dual injection on immobilized human FOLR1, 250 nM; competitor (1st VHH, saturating) A3; by the legend the value is of the 2nd VHH
Protocol: as §1, §2

[5] = target: T1, human FOLR1 recombinant protein …; assay: SPR dual injection on immobilized human FOLR1, 250 nM; competitor (1st VHH, saturating) A5; by the legend the value is of the 2nd VHH
Protocol: as §1, §2

[6] = target: T2, human FOLR1 expressed on SKOV-3 ovarian carcinoma cells (human, UniProt P15328 25-234); assay: saturation binding of 131I-labelled untagged VHH on SKOV-3 cells
T2 construct: Naturally expressed receptor on SKOV-3 cells; also called human FOLR1pos SKOV-3 cancer cells; human FOLR1-expressing cell line SKOV-3
T2 sequence (P15328 25-234 limits assumed): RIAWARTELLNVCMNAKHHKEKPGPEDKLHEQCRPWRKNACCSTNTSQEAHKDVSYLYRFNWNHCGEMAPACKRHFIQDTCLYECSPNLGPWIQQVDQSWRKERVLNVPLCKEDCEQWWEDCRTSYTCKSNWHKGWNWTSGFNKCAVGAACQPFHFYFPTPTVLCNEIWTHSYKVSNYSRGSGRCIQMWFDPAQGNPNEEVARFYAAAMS

[7] = target: T2, human FOLR1 expressed on SKOV-3 ovarian …; assay: cellular retention on SKOV-3 cells: 10 nM 131I-VHH 1 h at 4 C, then up to 24 h at 37 C; membrane-bound plus internalized fraction
Protocol: The in vitro cellular retention of the different His₆- and untagged ¹³¹I-labeled VHHs was assessed on the same cancer cells. In this particular case, human FOLR1^pos SKOV-3 cancer cells were incubated with 10 nM ¹³¹I-labelled VHHs for 1h at 4° C., after which the unbound fraction was collected. A 100-fold excess of the corresponding unlabeled VHH to assess non-specific binding. Next, the cells were incubated with fresh medium up to 24 h at 37° C., after which the dissociated fraction was collected. Afterwards, the cells were washed with 0.05 M glycine pH 2.8 to collect the membrane-bound fraction. Finally, cells were solubilized with 1 M NaOH at room temperature to collect the internalized fraction. The sum of the membrane-bound and internalized fractions corresponds to the total cell-associated fraction.

[8] = target: T2, human FOLR1 expressed on SKOV-3 ovarian …; assay: saturation binding of 131I-labelled untagged VHH on SKOV-3 cells; remark: listed apart in the source
Protocol: In a first part, their in vitro behaviour was assessed by means of investigating their cellular binding and retention over time. The binding potential of the resulting radioconjugates was assessed to confirm that this was not affected by the introduction of ¹³¹I-SGMIB into the amino acid sequence of the different VHHs. To this, human FOLR1^pos SKOV-3 cancer cells were incubated with serial dilutions with concentrations ranging from 0 to 300 nM of the different ¹³¹I-labelled, His₆ tagged VHHs. A 100-fold excess of the corresponding unlabeled VHH was added in parallel to saturate the human FOLR1 receptors expressed on cancer cells, to assess non-specific binding.
A1 and A2 parental untagged VHH’s and derivatives were radiolabeled with theranostic isotope ¹³¹I, as described in example 3, and subjected to saturation binding studies as described in example 6.

[9] = target: T1, human FOLR1 recombinant protein …; assay: SPR (Biacore T200), single cycle kinetics, His6-tagged VHH immobilized on CM5, human FOLR1 as analyte, 1:1 fit
Protocol: The kinetic parameters of antigen binding for purified VHHs A1, A2 and A3 were determined via surface plasmon resonance with a Biacore T200 instrument (GE Healthcare) using single cycle kinetics mode. While example 4d provides a first and preferred way of assessing the kinetic parameters of antigen binding for VHHs using surface plasmon resonance, this example provides an alternative setup for using surface plasmon resonance to assess the kinetic parameters of antigen binding, inverting the analyte and immobilized ligand. His₆-tagged VHH A1, A2 or A3 was immobilized in 10 mM sodium acetate, pH 5.5 on a CM5 chip (GE Healthcare) via amine coupling chemistry to 160 RU. The human FOLR1 recombinant protein (Sino Biological) was analyzed in a threefold serial dilution in HBS (38.5 nM-0.47 nM) with an analyte flow rate of 30 µl/min. The association phase took 180 s for every concentration and the dissociation phase 900 s. Regeneration was done by a single injection of 50 mM glycine-HCl, pH 2.5, 2 M MgCl2 for 30 s at 30 µl/min, followed by 120 s stabilization. Binding curves were fitted using a ‘1:1 (antigen:analyte)’ binding model in Biacore T200 evaluation software.

[10] = target: T1, human FOLR1 recombinant protein …; assay: SPR dual injection on immobilized human FOLR1, 250 nM; competitor (1st VHH, saturating) A4; by the legend the value is of the 2nd VHH
Protocol: as §1, §2

T1 sequence (P15328 25-233): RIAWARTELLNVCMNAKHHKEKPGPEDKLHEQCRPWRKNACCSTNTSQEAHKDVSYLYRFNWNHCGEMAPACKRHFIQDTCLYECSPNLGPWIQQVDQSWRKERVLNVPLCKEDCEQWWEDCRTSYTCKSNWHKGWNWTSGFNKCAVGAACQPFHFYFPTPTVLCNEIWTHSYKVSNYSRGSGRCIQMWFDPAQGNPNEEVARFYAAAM

B1: His6-tagged variant of VHH A4 (VHH)
VHH: DVQLVESGGGLARAGGSLRLSCAASGRAFSSTYAMGWFRQAPGKEREFVADINWSEGSPMYIDSVKDRFTISRDNARNSLYLQMNSLKSEDTAVYYCAARRFGQGYEYWGQGTQVTVSS
notes: Purified, unlabelled; also called A4 His6-tag
B1 showed a Kd [1] of 4.3 nM, a koff [1] of 0.0057 s⁻¹ and a kon [1] of 1.3e+06 M⁻¹ s⁻¹. The “loss in response level of VHH 2 relative to VHH 2 injected alone” value [2] was -97%, the “loss in response level of VHH 2 relative to VHH 2 injected alone” value [3] was -99% and the “loss in response level of VHH 2 relative to VHH 2 injected alone” value [4] was -100%. The “loss in response level of VHH 2 relative to VHH 2 injected alone” value [5] was -91%.

B2: 131I-labeled untagged VHH A3 (VHH)
VHH: DVQLVESGGGLVQAGGSLRLSCGVSGNMFSMNLMGWYRQPPGKERDWVAVITKDGSTNYADSVKGRFTISRDNAKNTVSLQMNSLKPEDTAVYYCNVQDGSGWIRAWGWDWGQGTQVTVSS
modifications: [131I]SGMIB conjugated to lysine side-chain amine groups
B2 was tested, and the EC50 [6] was 5.8 nM and the “cell-associated fraction of initial bound activity after 24 h” value [7] was 15%.

B3: 131I-labeled untagged VHH A1 (VHH)
VHH: DVQLVESGGGLVQPGGSLRLSCAASESIFSRNHMSWYRQAPGKQRELAAIITSDGNTNYPDSVKGRFTISRDNAKNTVYLQMNSLKPEDTAVYYCNTFGRSVAGFYDYWGQGTQVTVSS
modifications: [131I]SGMIB conjugated to lysine side-chain amine groups
For B3, the EC50 [6] was 1.2 nM, the EC50 [8] was 1.1 nM and the “cell-associated fraction of initial bound activity after 24 h” value [7] was roughly 40%.

B4: His6-tagged variant of VHH A1 (VHH)
VHH: DVQLVESGGGLVQPGGSLRLSCAASESIFSRNHMSWYRQAPGKQRELAAIITSDGNTNYPDSVKGRFTISRDNAKNTVYLQMNSLKPEDTAVYYCNTFGRSVAGFYDYWGQGTQVTVSS
notes: Purified, unlabelled; also called A1 His6-tag
Binder B4 has a Kd [1] of 0.04 nM, a koff [1] of 0.00014 s⁻¹ and a kon [1] of 3.6e+06 M⁻¹ s⁻¹. It also gave a Kd [9] of 0.44 nM, a koff [9] of 0.00019 s⁻¹ and a kon [9] of 430000 M⁻¹ s⁻¹. For the same binder, the “loss in response level of VHH 2 relative to VHH 2 injected alone” value [3] was -98%, the “loss in response level of VHH 2 relative to VHH 2 injected alone” value [4] was -100% and the “loss in response level of VHH 2 relative to VHH 2 injected alone” value [10] was -98%. The “loss in response level of VHH 2 relative to VHH 2 injected alone” value [5] was -91%.
